From publication PMC6368608 (Nature Communications, 2019)

B1: CH103-S14P (antibody, V domains shown)
V domain 1: QVQLQESGPGVVKPSETLSLTCTVSGGSMGGTYWSWLRLSPGKGLEWIGYIFHTGETNYSPSLKGRVSISVDTSEDQFSLRLRSVTAADTAVYFCASLPRGQLVNAYFRNWGRGSLVSVTA
V domain 2: YELTQPPSVSVSPGQTATITCSGASTNVCWYQVKPGQSPEVVIFENYKRPSGIPDRFSGSKSGSTATLTIRGTQAIDEADYYCQVWDSFSTFVFGSGTQVTVL
B2: CH103-S14P/G30S (antibody, V domains shown)
V domain 1: QVQLQESGPGVVKPSETLSLTCTVSGGSMSGTYWSWLRLSPGKGLEWIGYIFHTGETNYSPSLKGRVSISVDTSEDQFSLRLRSVTAADTAVYFCASLPRGQLVNAYFRNWGRGSLVSVTA
V domain 2: YELTQPPSVSVSPGQTATITCSGASTNVCWYQVKPGQSPEVVIFENYKRPSGIPDRFSGSKSGSTATLTIRGTQAIDEADYYCQVWDSFSTFVFGSGTQVTVL
B3: CH103 lineage intermediate I3 (antibody, V domains shown)
VH: QVQLQESGPGLVKSSETLSLTCTVSGGSMGGYYWSWLRQSPVKGLEWIGYIFHTGHTNYNPSLESRVTVSVDTSENQFSLRLRSVTAADTAVYYCASLPRGQLVNAFFDNWGQGTLVTVAS
VL: not shown
B4: I3 (CH103 lineage intermediate) (antibody, V domains shown)
VH: QVQLQESGPGLVKSSETLSLTCTVSGGSMGGYYWSWLRQSPVKGLEWIGYIFHTGHTNYNPSLESRVTVSVDTSENQFSLRLRSVTAADTAVYYCASLPRGQLVNAFFDNWGQGTLVTVAS
VL: not shown
B5: CH103 UCA (antibody, V domains shown)
VH: QVQLQESGPGLVKPSETLSLTCTVSGGSISSYYWSWIRQPPGKGLEWIGYIYYSGSTNYNPSLKSRVTISVDTSKNQFSLKLSSVTAADTAVYYCASLPRGQLVNAYFDYWGQGTLVTVSS
VL: not shown
notes: also called unmutated common ancestor of the CH103 lineage
B6: UCA-S30G/S31G (antibody, V domains shown)
VH: QVQLQESGPGLVKPSETLSLTCTVSGGSIGGYYWSWIRQPPGKGLEWIGYIYYSGSTNYNPSLKSRVTISVDTSKNQFSLKLSSVTAADTAVYYCASLPRGQLVNAYFDYWGQGTLVTVSS
VL: not shown
B7: UCA-S30G (antibody, V domains shown)
VH: QVQLQESGPGLVKPSETLSLTCTVSGGSIGSYYWSWIRQPPGKGLEWIGYIYYSGSTNYNPSLKSRVTISVDTSKNQFSLKLSSVTAADTAVYYCASLPRGQLVNAYFDYWGQGTLVTVSS
VL: not shown
B8: CH103 UCA-P14S (antibody, V domains shown)
VH: QVQLQESGPGLVKSSETLSLTCTVSGGSISSYYWSWIRQPPGKGLEWIGYIYYSGSTNYNPSLKSRVTISVDTSKNQFSLKLSSVTAADTAVYYCASLPRGQLVNAYFDYWGQGTLVTVSS
VL: not shown
B9: CH103 UCA (antibody, V domains shown)
VH: QVQLQESGPGLVKPSETLSLTCTVSGGSISSYYWSWIRQPPGKGLEWIGYIYYSGSTNYNPSLKSRVTISVDTSKNQFSLKLSSVTAADTAVYYCASLPRGQLVNAYFDYWGQGTLVTVSS
VL: not shown
notes: also called unmutated common ancestor of the CH103 lineage; wild-type UCA
B10: CH103 UCA-S30G/S31G (antibody, V domains shown)
VH: QVQLQESGPGLVKPSETLSLTCTVSGGSIGGYYWSWIRQPPGKGLEWIGYIYYSGSTNYNPSLKSRVTISVDTSKNQFSLKLSSVTAADTAVYYCASLPRGQLVNAYFDYWGQGTLVTVSS
VL: not shown
B11: CH103 UCA-S30G (antibody, V domains shown)
VH: QVQLQESGPGLVKPSETLSLTCTVSGGSIGSYYWSWIRQPPGKGLEWIGYIYYSGSTNYNPSLKSRVTISVDTSKNQFSLKLSSVTAADTAVYYCASLPRGQLVNAYFDYWGQGTLVTVSS
VL: not shown
B12: UCA-P14S (antibody, V domains shown)
VH: QVQLQESGPGLVKSSETLSLTCTVSGGSISSYYWSWIRQPPGKGLEWIGYIYYSGSTNYNPSLKSRVTISVDTSKNQFSLKLSSVTAADTAVYYCASLPRGQLVNAYFDYWGQGTLVTVSS
VL: not shown

Columns and labels:
Conditions in all cases: both partners purified
[1] = molecular target: T1, C.CH505TF gp120 (HIV-1 clade C, CH505 transmitted/founder, UniProt M4M0W3, strain); assay: SPR
[2] = molecular target: T1, C.CH505TF gp120; assay: SPR; remark: listed apart in the source
[3] = molecular target: T2, C.CH505TF gp120 (HIV-1 clade C, CH505 transmitted/founder, UniProt M4M0W3, strain); assay: SPR; BIAcore T200; […]) 5 min at 50 µL/min, 10 min dissociation; […]; global 1:1 Langmuir fit; […]
[4] = molecular target: T2, C.CH505TF gp120; assay: as above; remark: listed apart in the source

Row | Binder | koff [1] [s⁻¹] | kon [1] [M⁻¹ s⁻¹] | Kd [3] [nM] | other results
1 | B1 | 0.000262 | 5200 | – | Kd [1]: 50 nM
2 | B2 | 0.0003 | 4000 | – | Kd [1]: 70 nM
3 | B3 | – | – | – | koff [2]: 0.000234 s⁻¹; kon [2]: 24500 M⁻¹ s⁻¹
4 | B4 | – | – | 9.53 | –
5 | B5 | – | 23500 | – | –
6 | B6 | – | – | 440 | –
7 | B7 | – | – | 400 | –
8 | B8 | 0.0112 | 30000 | – | –
9 | B9 | – | – | 430 | koff [4]: 0.0101 s⁻¹; kon [4]: > 10000 M⁻¹ s⁻¹
10 | B10 | 0.011 | 25200 | – | –
11 | B11 | 0.0117 | 29600 | – | –
12 | B12 | – | – | 370 | –
